This is an account of results in the Immune Epitope Database (IEDB).

One assay has as its target HLA-B*18:01. As to the kind of experiment: IEDB peptide-MHC binding, purified MHC/competitive/radioactivity; filed as Kd, often an IC50 or EC50 that approximates it; ≥ and ≤ were set here for values at or beyond the usual limits of such assays.
In another assay the target is HLA-B*44:03. The assay is described as above.
The next assay has as its target HLA-B*40:01. The description is as above.
The next assay has as its target HLA-B*40:02. Described as above.
Another assay concerns the target HLA-B*44:02. The description is as above.
For another assay, the target named is HLA-B*45:01. The description is as above.
The target in the next assay is HLA-B*35:01. The assay is described as above.
The target in a further assay is HLA-B*57:01. As to the kind of experiment: IEDB peptide-MHC binding, purified MHC/direct/fluorescence; filed as Kd, often an IC50 or EC50 that approximates it; ≥ and ≤ were set here for values at or beyond the usual limits of such assays.
A further assay concerns the target HLA-B*58:01. The description is as above.
The target in another assay is HLA-B*39:01. As to the kind of experiment: IEDB peptide-MHC binding, purified MHC/competitive/fluorescence; filed as Kd, often an IC50 or EC50 that approximates it; ≥ and ≤ were set here for values at or beyond the usual limits of such assays. The note with it: source organism: Bacillus anthracis str. A0488.
A further assay deals with HLA-B*08:01. As to the kind of experiment: IEDB peptide-MHC binding, purified MHC/direct/fluorescence; filed as Kd, often an IC50 or EC50 that approximates it; ≥ and ≤ were set here for values at or beyond the usual limits of such assays. The conditions noted are these: source organism: Campylobacter jejuni subsp. jejuni 81-176.
[1] abbreviates: source organism: Mammarenavirus juninense.
The mark [2] stands for this setting: source organism: SARS coronavirus Tor2.
The mark [3] stands for this setting: source organism: Mammarenavirus whitewaterense.
[4] abbreviates: source organism: Mammarenavirus choriomeningitidis.
The mark [5] stands for this setting: source organism: Entamoeba histolytica HM-1:IMSS.

For LDLVLLNLL, the dissociation constant (Kd) – broadly, the free concentration of one partner at which half of the binding sites on the other are occupied at equilibrium, for simple one-to-one binding – with HLA-B*18:01 (setting [1]) was at least 43.6 µM; with HLA-B*44:03 (setting [1]), at least 45400 nM; with HLA-B*40:01 (setting [1]), 18.7 µM; with HLA-B*40:02 (setting [1]), 48.5 nM; with HLA-B*44:02 (setting [1]), at least 77.9 µM; with HLA-B*45:01 (setting [1]), 12500 nM.
On to LPDYGELTLD, for which the equilibrium dissociation constant (Kd) with HLA-B*35:01 (source organism: Dengue virus 4 Philippines/H241/1956) is 9.96 µM.
NELTLIDFYL: the Kd with HLA-B*18:01 (setting [2]) is 0.604 µM; with HLA-B*44:03 (setting [2]), 51 nM; with HLA-B*40:01 (setting [2]), 0.231 µM; in the assay with HLA-B*40:02 (setting [2]), 126 nM; in the assay with HLA-B*44:02 (setting [2]), 0.157 µM; with HLA-B*45:01 (setting [2]) it was 1080 nM.
Regarding QELGHEDLMA, the Kd in the assay with HLA-B*18:01 (setting [2]) was at least 70.5 µM; with HLA-B*44:03 (setting [2]), 2350 nM; in the assay with HLA-B*40:01 (setting [2]), at least 26.9 µM; with HLA-B*40:02 (setting [2]), 2580 nM; with HLA-B*44:02 (setting [2]) it was 4.15 µM; with HLA-B*45:01 (setting [2]) it was 671 nM.
Take QELGKYEQYI: the Kd with HLA-B*18:01 (setting [2]) was at least 70.5 µM; in the assay with HLA-B*44:03 (setting [2]) it was 187 nM; with HLA-B*40:01 (setting [2]) it was 13 µM; with HLA-B*40:02 (setting [2]) it was 507 nM; with HLA-B*44:02 (setting [2]), 0.207 µM; with HLA-B*45:01 (setting [2]) it was at least 20600 nM.
Take REIGFIVPGL: the Kd is 8.67 µM with HLA-B*18:01 (setting [2]); 4.29 nM with HLA-B*44:03 (setting [2]); 0.000132 µM with HLA-B*40:01 (setting [2]); 0.408 nM with HLA-B*40:02 (setting [2]); 0.0143 µM in the assay with HLA-B*44:02 (setting [2]); 103 nM with HLA-B*45:01 (setting [2]).
Take REPETTVVL: the Kd was 7.9 µM with HLA-B*18:01 (setting [3]); at least 44300 nM in the assay with HLA-B*44:03 (setting [3]); 0.112 µM with HLA-B*40:01 (setting [3]); 92.7 nM with HLA-B*40:02 (setting [3]); 18.6 µM with HLA-B*44:02 (setting [3]); at least 74800 nM with HLA-B*45:01 (setting [3]).
For SAFFGMSRIG, the dissociation constant Kd is at least 70.5 µM with HLA-B*18:01 (setting [2]); 8770 nM with HLA-B*44:03 (setting [2]); at least 44.9 µM with HLA-B*40:01 (setting [2]); at least 70800 nM with HLA-B*40:02 (setting [2]); 18.4 µM in the assay with HLA-B*44:02 (setting [2]); at least 26400 nM in the assay with HLA-B*45:01 (setting [2]).
With SDAALHNMI, the Kd was at least 77.5 µM with HLA-B*18:01 (setting [4]); at least 31700 nM with HLA-B*44:03 (setting [4]); at least 35.8 µM with HLA-B*40:01 (setting [4]); 1930 nM in the assay with HLA-B*40:02 (setting [4]); 7.07 µM in the assay with HLA-B*44:02 (setting [4]); 2120 nM in the assay with HLA-B*45:01 (setting [4]).
As to SDSVCACGL, the dissociation constant Kd with HLA-B*18:01 (setting [3]) was at least 77.5 µM; in the assay with HLA-B*44:03 (setting [3]), 2830 nM; in the assay with HLA-B*40:01 (setting [3]) it was at least 44 µM; with HLA-B*40:02 (setting [3]) it was 3880 nM; with HLA-B*44:02 (setting [3]) it was 3.09 µM; with HLA-B*45:01 (setting [3]), 10600 nM.
SEEVVENPTI: the dissociation constant (Kd) was at least 48.7 µM in the assay with HLA-B*18:01 (setting [2]); 1040 nM with HLA-B*44:03 (setting [2]); 1.05 µM with HLA-B*40:01 (setting [2]); 402 nM in the assay with HLA-B*40:02 (setting [2]); 0.471 µM with HLA-B*44:02 (setting [2]); 277 nM with HLA-B*45:01 (setting [2]).
With SSTDQQEWM, the dissociation constant (Kd) with HLA-B*57:01 (setting [5]) was at least 20000 nM; in the assay with HLA-B*58:01 (setting [5]), 3870 nM.
For the sequence TPPGSVEAF, the equilibrium dissociation constant (Kd) with HLA-B*35:01 (source organism: Dengue virus 1 Brazil/97-11/1997) came out at 0.699 µM.
On to VDYGVRFFFY, for which the Kd was at least 38.1 µM with HLA-B*18:01 (setting [2]); 789 nM with HLA-B*44:03 (setting [2]); 16.8 µM with HLA-B*40:01 (setting [2]); at least 30400 nM with HLA-B*40:02 (setting [2]); 0.823 µM in the assay with HLA-B*44:02 (setting [2]); 451 nM in the assay with HLA-B*45:01 (setting [2]).
Turning to VSLTECPTF, the Kd with HLA-B*57:01 (source organism: Amur virus) is 474 nM; in the assay with HLA-B*58:01 (source organism: Amur virus), 34.8 nM.
Turning to YHHTAINVL, the Kd with HLA-B*39:01 was 6.3 nM.
In turn, YLKPKIWRF returned a dissociation constant (Kd) with HLA-B*08:01 of 8 nM.
